From US20220298260A1 (MYTHIC THERAPEUTICS, published 2022)

Target: T1, FOLR1 (R&D Systems, Cat #5646-FR) (human, UniProt P15328 25-233)
T1 construct: Bought soluble protein; also called Folate Receptor 1
Assay: BLI, IgG on anti-human Fc sensor, 50 nM FOLR1

T1 sequence (P15328 25-233 limits assumed): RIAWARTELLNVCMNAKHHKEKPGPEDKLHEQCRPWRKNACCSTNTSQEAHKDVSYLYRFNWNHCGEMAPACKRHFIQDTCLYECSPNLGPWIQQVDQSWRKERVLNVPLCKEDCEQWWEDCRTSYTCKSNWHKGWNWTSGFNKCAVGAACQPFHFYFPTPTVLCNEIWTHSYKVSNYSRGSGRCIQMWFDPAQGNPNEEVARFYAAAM

Row | Binder | binding result
1 | MYT1588 (antibody, V domains shown, IgG) VH: QVQLVQSGAEVVKPGASVKISCKASGYTFTGYFMNWVKQSPGQSLEWIGRIHPYDGDTFYNQKFQGKATLTVDKSSNTAHMELLSLTSEDFAVYYCTRYDGSRAMDYWGQGTTVTVSS VL: DIVLTQSPLSLAVSLGQPAIISCKASQSVSFAGTSLMHWYHQKPGQQPRLLIYRASNLEAGVPDRFSGSGSKTDFTLTISPVEAEDAATYYCQQSREYPHTFGGGTKLEIK | binds
2 | MYT1589 (antibody, V domains shown, IgG) VH: QVQLVQSGAEVVKPGASVKISCKASGYTFTGYFMNWVKQSPGQSLEWIGRIHPYDGDTFYNQKFQGKATLTVDKSSNTAHMELLSLTSEDFAVYYCTRYDGSRAMDYWGQGTTVTVSS VL: DIVLTQSPLSLAVSLGQPAIISCKASQSVSFAGTSLMHWYHQKPGQQPRLLIYRASNLEAGVPDRFSGSGSKTDFTLTISPVEAEDAATYYCQQSREYPYHFGGGTKLEIK | binds
3 | MYT2225 (antibody, V domains shown, IgG) VH: EVQLVESGGGLVQPGGSLRLSCAASHFNIRTQSIHWVRQAPGKGLEWIGDIFPIDGITDYADSVKGRFTISADTSKNTAYLQMNSLRAEDTAVYYCARGSWSWPSGMDYYLDYWGQGTLVTVSS VL: not shown | binds
4 | MYT2256 (antibody, V domains shown, IgG) VH: EVQLVESGGGLVQPGGSLRLSCAASGFNIRTQSIHWVRQAPGKGLEWIGDIFPIDGITDYADSVKGRFTISADTSKNTAYLQMNSLRAEDTAVYYCARGSHSWPSGMDYYLDYWGQGTLVTVSS VL: not shown | binds
5 | MYT2253 (antibody, V domains shown, IgG) VH: EVQLVESGGGLVQPGGSLRLSCAASGFNIRTQSIHWVRQAPGKGLEWIGDIFPIDGITDYADSVKGRFTISADTSKNTAYLQMNSLRAEDTAVYYCAHGSWSWPSGMDYYLDYWGQGTLVTVSS VL: not shown | binds
6 | MYT2246 (antibody, V domains shown, IgG) VH: EVQLVESGGGLVQPGGSLRLSCAASGFNIRTQSIHWVRQAPGKGLEWIGDIFPIDGITDYHDSVKGRFTISADTSKNTAYLQMNSLRAEDTAVYYCARGSWSWPSGMDYYLDYWGQGTLVTVSS VL: not shown | binds
7 | MYT2226 (antibody, V domains shown, IgG) VH: EVQLVESGGGLVQPGGSLRLSCAASGHNIRTQSIHWVRQAPGKGLEWIGDIFPIDGITDYADSVKGRFTISADTSKNTAYLQMNSLRAEDTAVYYCARGSWSWPSGMDYYLDYWGQGTLVTVSS VL: not shown | binds
8 | MYT2233 (antibody, V domains shown, IgG) VH: EVQLVESGGGLVQPGGSLRLSCAASGFNIRTQSHHWVRQAPGKGLEWIGDIFPIDGITDYADSVKGRFTISADTSKNTAYLQMNSLRAEDTAVYYCARGSWSWPSGMDYYLDYWGQGTLVTVSS VL: not shown | binds
9 | MYT2232 (antibody, V domains shown, IgG) VH: EVQLVESGGGLVQPGGSLRLSCAASGFNIRTQHIHWVRQAPGKGLEWIGDIFPIDGITDYADSVKGRFTISADTSKNTAYLQMNSLRAEDTAVYYCARGSWSWPSGMDYYLDYWGQGTLVTVSS VL: not shown | binds
10 | MYT2231 (antibody, V domains shown, IgG) VH: EVQLVESGGGLVQPGGSLRLSCAASGFNIRTHSIHWVRQAPGKGLEWIGDIFPIDGITDYADSVKGRFTISADTSKNTAYLQMNSLRAEDTAVYYCARGSWSWPSGMDYYLDYWGQGTLVTVSS VL: not shown | binds
11 | MYT2255 (antibody, V domains shown, IgG) VH: EVQLVESGGGLVQPGGSLRLSCAASGFNIRTQSIHWVRQAPGKGLEWIGDIFPIDGITDYADSVKGRFTISADTSKNTAYLQMNSLRAEDTAVYYCARGHWSWPSGMDYYLDYWGQGTLVTVSS VL: not shown | binds
12 | MYT2236 (antibody, V domains shown, IgG) VH: EVQLVESGGGLVQPGGSLRLSCAASGFNIRTQSIHWVRQAPGKGLEWIGDHFPIDGITDYADSVKGRFTISADTSKNTAYLQMNSLRAEDTAVYYCARGSWSWPSGMDYYLDYWGQGTLVTVSS VL: not shown | binds
13 | MYT2248 (antibody, V domains shown, IgG) VH: EVQLVESGGGLVQPGGSLRLSCAASGFNIRTQSIHWVRQAPGKGLEWIGDIFPIDGITDYADHVKGRFTISADTSKNTAYLQMNSLRAEDTAVYYCARGSWSWPSGMDYYLDYWGQGTLVTVSS VL: not shown | binds
14 | MYT2234 (antibody, V domains shown, IgG) VH: EVQLVESGGGLVQPGGSLRLSCAASGFNIRTQSIAWVRQAPGKGLEWIGDIFPIDGITDYADSVKGRFTISADTSKNTAYLQMNSLRAEDTAVYYCARGSWSWPSGMDYYLDYWGQGTLVTVSS VL: not shown | binds

The next lines start with the values.

Row | binding result | Binder
15 | binds | MYT2239 (antibody, V domains shown, IgG) VH: EVQLVESGGGLVQPGGSLRLSCAASGFNIRTQSIHWVRQAPGKGLEWIGDIFPHDGITDYADSVKGRFTISADTSKNTAYLQMNSLRAEDTAVYYCARGSWSWPSGMDYYLDYWGQGTLVTVSS VL: not shown
16 | binds | MYT2251 (antibody, V domains shown, IgG) VH: EVQLVESGGGLVQPGGSLRLSCAASGFNIRTQSIHWVRQAPGKGLEWIGDIFPIDGITDYADSVKHRFTISADTSKNTAYLQMNSLRAEDTAVYYCARGSWSWPSGMDYYLDYWGQGTLVTVSS VL: not shown
17 | binds | MYT2227 (antibody, V domains shown, IgG) VH: EVQLVESGGGLVQPGGSLRLSCAASGFHIRTQSIHWVRQAPGKGLEWIGDIFPIDGITDYADSVKGRFTISADTSKNTAYLQMNSLRAEDTAVYYCARGSWSWPSGMDYYLDYWGQGTLVTVSS VL: not shown
18 | binds | MYT2245 (antibody, V domains shown, IgG) VH: EVQLVESGGGLVQPGGSLRLSCAASGFNIRTQSIHWVRQAPGKGLEWIGDIFPIDGITDHADSVKGRFTISADTSKNTAYLQMNSLRAEDTAVYYCARGSWSWPSGMDYYLDYWGQGTLVTVSS VL: not shown
19 | binds | MYT2247 (antibody, V domains shown, IgG) VH: EVQLVESGGGLVQPGGSLRLSCAASGFNIRTQSIHWVRQAPGKGLEWIGDIFPIDGITDYAHSVKGRFTISADTSKNTAYLQMNSLRAEDTAVYYCARGSWSWPSGMDYYLDYWGQGTLVTVSS VL: not shown
20 | binds | MYT2243 (antibody, V domains shown, IgG) VH: EVQLVESGGGLVQPGGSLRLSCAASGFNIRTQSIHWVRQAPGKGLEWIGDIFPIDGIHDYADSVKGRFTISADTSKNTAYLQMNSLRAEDTAVYYCARGSWSWPSGMDYYLDYWGQGTLVTVSS VL: not shown
21 | binds | MYT2235 (antibody, V domains shown, IgG) VH: EVQLVESGGGLVQPGGSLRLSCAASGFNIRTQSIHWVRQAPGKGLEWIGHIFPIDGITDYADSVKGRFTISADTSKNTAYLQMNSLRAEDTAVYYCARGSWSWPSGMDYYLDYWGQGTLVTVSS VL: not shown
22 | binds | MYT2240 (antibody, V domains shown, IgG) VH: EVQLVESGGGLVQPGGSLRLSCAASGFNIRTQSIHWVRQAPGKGLEWIGDIFPIHGITDYADSVKGRFTISADTSKNTAYLQMNSLRAEDTAVYYCARGSWSWPSGMDYYLDYWGQGTLVTVSS VL: not shown
23 | binds | MYT2249 (antibody, V domains shown, IgG) VH: EVQLVESGGGLVQPGGSLRLSCAASGFNIRTQSIHWVRQAPGKGLEWIGDIFPIDGITDYADSHKGRFTISADTSKNTAYLQMNSLRAEDTAVYYCARGSWSWPSGMDYYLDYWGQGTLVTVSS VL: not shown
24 | binds | MYT2242 (antibody, V domains shown, IgG) VH: EVQLVESGGGLVQPGGSLRLSCAASGFNIRTQSIHWVRQAPGKGLEWIGDIFPIDGHTDYADSVKGRFTISADTSKNTAYLQMNSLRAEDTAVYYCARGSWSWPSGMDYYLDYWGQGTLVTVSS VL: not shown
25 | binds | MYT2229 (antibody, V domains shown, IgG) VH: EVQLVESGGGLVQPGGSLRLSCAASGFNIHTQSIHWVRQAPGKGLEWIGDIFPIDGITDYADSVKGRFTISADTSKNTAYLQMNSLRAEDTAVYYCARGSWSWPSGMDYYLDYWGQGTLVTVSS VL: not shown
26 | binds | MYT2228 (antibody, V domains shown, IgG) VH: EVQLVESGGGLVQPGGSLRLSCAASGFNHRTQSIHWVRQAPGKGLEWIGDIFPIDGITDYADSVKGRFTISADTSKNTAYLQMNSLRAEDTAVYYCARGSWSWPSGMDYYLDYWGQGTLVTVSS VL: not shown
27 | binds | MYT2250 (antibody, V domains shown, IgG) VH: EVQLVESGGGLVQPGGSLRLSCAASGFNIRTQSIHWVRQAPGKGLEWIGDIFPIDGITDYADSVHGRFTISADTSKNTAYLQMNSLRAEDTAVYYCARGSWSWPSGMDYYLDYWGQGTLVTVSS VL: not shown
28 | binds | MYT2237 (antibody, V domains shown, IgG) VH: EVQLVESGGGLVQPGGSLRLSCAASGFNIRTQSIHWVRQAPGKGLEWIGDIHPIDGITDYADSVKGRFTISADTSKNTAYLQMNSLRAEDTAVYYCARGSWSWPSGMDYYLDYWGQGTLVTVSS VL: not shown
29 | binds | MYT2230 (antibody, V domains shown, IgG) VH: EVQLVESGGGLVQPGGSLRLSCAASGFNIRHQSIHWVRQAPGKGLEWIGDIFPIDGITDYADSVKGRFTISADTSKNTAYLQMNSLRAEDTAVYYCARGSWSWPSGMDYYLDYWGQGTLVTVSS VL: not shown
30 | binds | MYT2257 (antibody, V domains shown, IgG) VH: EVQLVESGGGLVQPGGSLRLSCAASGFNIRTQSIHWVRQAPGKGLEWIGDIFPIDGITDYADSVKGRFTISADTSKNTAYLQMNSLRAEDTAVYYCARGSWHWPSGMDYYLDYWGQGTLVTVSS VL: not shown
31 | binds | MYT2241 (antibody, V domains shown, IgG) VH: EVQLVESGGGLVQPGGSLRLSCAASGFNIRTQSIHWVRQAPGKGLEWIGDIFPIDHITDYADSVKGRFTISADTSKNTAYLQMNSLRAEDTAVYYCARGSWSWPSGMDYYLDYWGQGTLVTVSS VL: not shown
32 | binds | MYT2238 (antibody, V domains shown, IgG) VH: EVQLVESGGGLVQPGGSLRLSCAASGFNIRTQSIHWVRQAPGKGLEWIGDIFHIDGITDYADSVKGRFTISADTSKNTAYLQMNSLRAEDTAVYYCARGSWSWPSGMDYYLDYWGQGTLVTVSS VL: not shown
